# Reference: patent US20200024322A1 (Eli Lilly, published 2020)
# Numbered stars: 1 amine (or outer) side, 2 acyl side, 3 side chain; on linkers, the order of the positions; unused ones are H or OH. Square brackets hold non-standard residues; d marks the D form. Side chains are listed from the residue outwards. Ends that are not written are not given here. * marks the point of attachment. C20 diacid = O=C(O)CCCCCCCCCCCCCCCCCCC(=O)*; γGlu = O=C(O)[C@H](CCC(=O)[*:2])N[*:1]; αMeL = CC(C)C[C@](C)(N)C(=O)O; αMeK = C[C@](N)(CCCCN)C(=O)O; Dab = NCC[C@H](N)C(=O)O; AEEA = NCCOCCOCC(=O)O; Aib = CC(C)(N)C(=O)O
# Assays:
# human GIP receptor = molecular target: T1, human GIP receptor (human, UniProt P48546 22-466); assay: SPA, [125I]-GIP displacement, hGIPR membranes
# T1 construct: whole, on cells; Used as crude membranes of stably transfected CHO cells; also called hGIPR
# T1 sequence (looked up): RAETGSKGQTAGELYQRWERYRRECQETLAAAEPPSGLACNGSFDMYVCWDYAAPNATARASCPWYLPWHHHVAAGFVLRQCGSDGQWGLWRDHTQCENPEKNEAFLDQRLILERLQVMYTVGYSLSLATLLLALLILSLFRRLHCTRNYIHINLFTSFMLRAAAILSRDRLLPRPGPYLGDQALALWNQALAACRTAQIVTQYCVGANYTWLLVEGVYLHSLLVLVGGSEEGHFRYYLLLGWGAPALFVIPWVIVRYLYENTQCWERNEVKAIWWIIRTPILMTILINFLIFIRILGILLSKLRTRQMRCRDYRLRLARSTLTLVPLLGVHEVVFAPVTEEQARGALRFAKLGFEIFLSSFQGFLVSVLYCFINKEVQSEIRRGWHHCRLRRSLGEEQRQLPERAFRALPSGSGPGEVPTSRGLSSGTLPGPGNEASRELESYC
# human glucagon receptor = molecular target: T2, human glucagon receptor (human, UniProt P47871 26-477); assay: SPA, [125I]-Gcg displacement, hGcgR membranes
# T2 construct: whole, on cells; Used as crude membranes of stably transfected HEK293 cells; also called hGcgR; hGLcgR
# T2 sequence (P47871 26-477): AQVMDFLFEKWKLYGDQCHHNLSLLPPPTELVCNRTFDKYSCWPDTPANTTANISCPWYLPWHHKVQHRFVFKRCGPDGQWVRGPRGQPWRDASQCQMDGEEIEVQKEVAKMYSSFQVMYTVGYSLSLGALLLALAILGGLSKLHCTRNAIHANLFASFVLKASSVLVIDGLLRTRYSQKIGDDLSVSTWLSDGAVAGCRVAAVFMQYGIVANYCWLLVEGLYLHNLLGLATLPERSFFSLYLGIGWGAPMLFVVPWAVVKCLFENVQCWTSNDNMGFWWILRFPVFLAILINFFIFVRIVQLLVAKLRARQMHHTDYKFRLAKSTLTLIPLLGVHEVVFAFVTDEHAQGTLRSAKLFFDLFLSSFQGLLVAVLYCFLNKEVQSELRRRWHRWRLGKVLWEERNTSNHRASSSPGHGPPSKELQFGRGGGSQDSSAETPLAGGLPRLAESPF
# human GLP-1 receptor = molecular target: T3, human GLP-1 receptor (human, UniProt P43220 24-463); assay: SPA, [125I]-GLP-1 displacement, hGLP-1R membranes
# T3 construct: whole, on cells; Used as crude membranes of stably transfected HEK293 cells; also called hGLP1R; hGLP-1R
Binder,Ki (human GIP receptor),Ki (human glucagon receptor),Ki (human GLP-1 receptor)
Y[Aib]EGTFTSDYSILLDKIAQK([AEEA-AEEA-γGlu-C20 diacid])AFIEYLIEGGPSSGAPPPS-NH2 (N-terminus assumed; SMILES CC[C@H](C)[C@H](NC(=O)[C@H](CCCCN)NC(=O)[C@H](CC(=O)O)NC(=O)[C@H](CC(C)C)NC(=O)[C@H](CC(C)C)NC(=O)[C@@H](NC(=O)[C@H](CO)NC(=O)[C@H](Cc1ccc(O)cc1)NC(=O)[C@H](CC(=O)O)NC(=O)[C@H](CO)NC(=O)[C@@H](NC(=O)[C@H](Cc1ccccc1)NC(=O)[C@@H](NC(=O)CNC(=O)[C@H](CCC(=O)O)NC(=O)C(C)(C)NC(=O)[C@@H](N)Cc1ccc(O)cc1)[C@@H](C)O)[C@@H](C)O)[C@@H](C)CC)C(=O)N[C@@H](C)C(=O)N[C@@H](CCC(N)=O)C(=O)N[C@@H](CCCCNC(=O)COCCOCCNC(=O)COCCOCCNC(=O)CC[C@H](NC(=O)CCCCCCCCCCCCCCCCCCC(=O)O)C(=O)O)C(=O)N[C@@H](C)C(=O)N[C@@H](Cc1ccccc1)C(=O)N[C@H](C(=O)N[C@@H](CCC(=O)O)C(=O)N[C@@H](Cc1ccc(O)cc1)C(=O)N[C@@H](CC(C)C)C(=O)N[C@H](C(=O)N[C@@H](CCC(=O)O)C(=O)NCC(=O)NCC(=O)N1CCC[C@H]1C(=O)N[C@@H](CO)C(=O)N[C@@H](CO)C(=O)NCC(=O)N[C@@H](C)C(=O)N1CCC[C@H]1C(=O)N1CCC[C@H]1C(=O)N1CCC[C@H]1C(=O)N[C@@H](CO)C(N)=O)[C@@H](C)CC)[C@@H](C)CC) [Example 12],0.167 nM,684 nM,12.9 nM
Y[Aib]EGTFTSDYSILLDKIAQK([AEEA-AEEA-γGlu-C20 diacid])EFIQYLLE[Aib]GPSSGAPPPS-NH2 (N-terminus assumed; SMILES CC[C@H](C)[C@H](NC(=O)[C@H](CCCCN)NC(=O)[C@H](CC(=O)O)NC(=O)[C@H](CC(C)C)NC(=O)[C@H](CC(C)C)NC(=O)[C@@H](NC(=O)[C@H](CO)NC(=O)[C@H](Cc1ccc(O)cc1)NC(=O)[C@H](CC(=O)O)NC(=O)[C@H](CO)NC(=O)[C@@H](NC(=O)[C@H](Cc1ccccc1)NC(=O)[C@@H](NC(=O)CNC(=O)[C@H](CCC(=O)O)NC(=O)C(C)(C)NC(=O)[C@@H](N)Cc1ccc(O)cc1)[C@@H](C)O)[C@@H](C)O)[C@@H](C)CC)C(=O)N[C@@H](C)C(=O)N[C@@H](CCC(N)=O)C(=O)N[C@@H](CCCCNC(=O)COCCOCCNC(=O)COCCOCCNC(=O)CC[C@H](NC(=O)CCCCCCCCCCCCCCCCCCC(=O)O)C(=O)O)C(=O)N[C@@H](CCC(=O)O)C(=O)N[C@@H](Cc1ccccc1)C(=O)N[C@H](C(=O)N[C@@H](CCC(N)=O)C(=O)N[C@@H](Cc1ccc(O)cc1)C(=O)N[C@@H](CC(C)C)C(=O)N[C@@H](CC(C)C)C(=O)N[C@@H](CCC(=O)O)C(=O)NC(C)(C)C(=O)NCC(=O)N1CCC[C@H]1C(=O)N[C@@H](CO)C(=O)N[C@@H](CO)C(=O)NCC(=O)N[C@@H](C)C(=O)N1CCC[C@H]1C(=O)N1CCC[C@H]1C(=O)N1CCC[C@H]1C(=O)N[C@@H](CO)C(N)=O)[C@@H](C)CC) [Example 14],0.0494 nM,160 nM,29.6 nM
H[Aib]EGTFTSDYSILLDKK([AEEA-AEEA-γGlu-C20 diacid])AQ[Aib]AFIEYLLE[Aib]GPSSGAPPPS-NH2 (N-terminus assumed; SMILES CC[C@H](C)[C@H](NC(=O)[C@H](Cc1ccccc1)NC(=O)[C@H](C)NC(=O)C(C)(C)NC(=O)[C@H](CCC(N)=O)NC(=O)[C@H](C)NC(=O)[C@H](CCCCNC(=O)COCCOCCNC(=O)COCCOCCNC(=O)CC[C@H](NC(=O)CCCCCCCCCCCCCCCCCCC(=O)O)C(=O)O)NC(=O)[C@H](CCCCN)NC(=O)[C@H](CC(=O)O)NC(=O)[C@H](CC(C)C)NC(=O)[C@H](CC(C)C)NC(=O)[C@@H](NC(=O)[C@H](CO)NC(=O)[C@H](Cc1ccc(O)cc1)NC(=O)[C@H](CC(=O)O)NC(=O)[C@H](CO)NC(=O)[C@@H](NC(=O)[C@H](Cc1ccccc1)NC(=O)[C@@H](NC(=O)CNC(=O)[C@H](CCC(=O)O)NC(=O)C(C)(C)NC(=O)[C@@H](N)Cc1c[nH]cn1)[C@@H](C)O)[C@@H](C)O)[C@@H](C)CC)C(=O)N[C@@H](CCC(=O)O)C(=O)N[C@@H](Cc1ccc(O)cc1)C(=O)N[C@@H](CC(C)C)C(=O)N[C@@H](CC(C)C)C(=O)N[C@@H](CCC(=O)O)C(=O)NC(C)(C)C(=O)NCC(=O)N1CCC[C@H]1C(=O)N[C@@H](CO)C(=O)N[C@@H](CO)C(=O)NCC(=O)N[C@@H](C)C(=O)N1CCC[C@H]1C(=O)N1CCC[C@H]1C(=O)N1CCC[C@H]1C(=O)N[C@@H](CO)C(N)=O) [Example 15],0.284 nM,130 nM,2.19 nM
H[Aib]EGTFTSDYSILLDKK([AEEA-AEEA-γGlu-C20 diacid])AQ[Aib]AFIEYLIE[Aib]GPSSGAPPPS-NH2 (N-terminus assumed; SMILES CC[C@H](C)[C@H](NC(=O)[C@H](Cc1ccccc1)NC(=O)[C@H](C)NC(=O)C(C)(C)NC(=O)[C@H](CCC(N)=O)NC(=O)[C@H](C)NC(=O)[C@H](CCCCNC(=O)COCCOCCNC(=O)COCCOCCNC(=O)CC[C@H](NC(=O)CCCCCCCCCCCCCCCCCCC(=O)O)C(=O)O)NC(=O)[C@H](CCCCN)NC(=O)[C@H](CC(=O)O)NC(=O)[C@H](CC(C)C)NC(=O)[C@H](CC(C)C)NC(=O)[C@@H](NC(=O)[C@H](CO)NC(=O)[C@H](Cc1ccc(O)cc1)NC(=O)[C@H](CC(=O)O)NC(=O)[C@H](CO)NC(=O)[C@@H](NC(=O)[C@H](Cc1ccccc1)NC(=O)[C@@H](NC(=O)CNC(=O)[C@H](CCC(=O)O)NC(=O)C(C)(C)NC(=O)[C@@H](N)Cc1c[nH]cn1)[C@@H](C)O)[C@@H](C)O)[C@@H](C)CC)C(=O)N[C@@H](CCC(=O)O)C(=O)N[C@@H](Cc1ccc(O)cc1)C(=O)N[C@@H](CC(C)C)C(=O)N[C@H](C(=O)N[C@@H](CCC(=O)O)C(=O)NC(C)(C)C(=O)NCC(=O)N1CCC[C@H]1C(=O)N[C@@H](CO)C(=O)N[C@@H](CO)C(=O)NCC(=O)N[C@@H](C)C(=O)N1CCC[C@H]1C(=O)N1CCC[C@H]1C(=O)N1CCC[C@H]1C(=O)N[C@@H](CO)C(N)=O)[C@@H](C)CC) [Example 16],0.0841 nM,371 nM,2.78 nM
YXEGTXTSDXSIXLDEKAQXEFIXYLIEGGPSSGAPPPS (Aib2; αMeF(2F)6; 4Pal10; αMeL13; K17((2-[2-(2-Amino-ethoxy)-ethoxy]-acetyl)2-CO-(CH2)16-CO2H); Aib20; D-Glu24; C-terminal NH2) [Example 205],0.0367 nM,438 nM,3.05 nM
YXEGTXTSDXSIXLDEKAQXEFIXYLIEGGPSSGAPPPS (Aib2; αMeF(2F)6; 4Pal10; αMeL13; K17((2-[2-(2-Amino-ethoxy)-ethoxy]-acetyl)2-(εK)-CO-(CH2)18-CO2H); Aib20; D-Glu24; C-terminal NH2) [Example 207],0.0786 nM,74.2 nM,1.37 nM
YXEGTXTSDXSIXLDEKAQXEFIXYLIEGGPSSGAPPPS (Aib2; αMeF(2F)6; 4Pal10; αMeL13; K17((2-[2-(2-Amino-ethoxy)-ethoxy]-acetyl)2-CO-(CH2)18-CO2H); Aib20; D-Glu24; C-terminal NH2) [Example 206],0.0814 nM,176 nM,5.27 nM
H[Aib]EGTFTSDYSI[αMeL]LDKK([Dab-AEEA-Dab-AEEA-C20 diacid])AQ[αMeK]AFIQYLLA[Aib]GPSSGAPKPS-NH2 [Example 18],0.0798 nM,50.1 nM,0.319 nM
H[Aib]EGTFTSDYSI[αMeL]LDKK([Dab-AEEA-Dab-AEEA-C20 diacid])AQ[αMeK]AFIQYLLA[Aib]GPSSGAPPPS-NH2 [Example 19],0.0518 nM,60.5 nM,0.24 nM
H[Aib]EGTFTSDYSILLDKIAQK([AEEA-AEEA-γGlu-C20 diacid])AFIEYLLE[Aib]GPSSG-NH2 (N-terminus assumed; SMILES CC[C@H](C)[C@H](NC(=O)[C@H](CCCCN)NC(=O)[C@H](CC(=O)O)NC(=O)[C@H](CC(C)C)NC(=O)[C@H](CC(C)C)NC(=O)[C@@H](NC(=O)[C@H](CO)NC(=O)[C@H](Cc1ccc(O)cc1)NC(=O)[C@H](CC(=O)O)NC(=O)[C@H](CO)NC(=O)[C@@H](NC(=O)[C@H](Cc1ccccc1)NC(=O)[C@@H](NC(=O)CNC(=O)[C@H](CCC(=O)O)NC(=O)C(C)(C)NC(=O)[C@@H](N)Cc1c[nH]cn1)[C@@H](C)O)[C@@H](C)O)[C@@H](C)CC)C(=O)N[C@@H](C)C(=O)N[C@@H](CCC(N)=O)C(=O)N[C@@H](CCCCNC(=O)COCCOCCNC(=O)COCCOCCNC(=O)CC[C@H](NC(=O)CCCCCCCCCCCCCCCCCCC(=O)O)C(=O)O)C(=O)N[C@@H](C)C(=O)N[C@@H](Cc1ccccc1)C(=O)N[C@H](C(=O)N[C@@H](CCC(=O)O)C(=O)N[C@@H](Cc1ccc(O)cc1)C(=O)N[C@@H](CC(C)C)C(=O)N[C@@H](CC(C)C)C(=O)N[C@@H](CCC(=O)O)C(=O)NC(C)(C)C(=O)NCC(=O)N1CCC[C@H]1C(=O)N[C@@H](CO)C(=O)N[C@@H](CO)C(=O)NCC(N)=O)[C@@H](C)CC) [Example 17],0.606 nM,261 nM,7.63 nM
